Experimental data as given in the supplement of paper PMC12764529.
± gives the half width of the 95% confidence interval.

What was measured:
[1] = folding stability dG unfold from trypsin proteolysis; higher = more stable
Procedure, shortened: (§1)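 Unfolding free energy was derived, per protease or combined, by relating Bayesian-fitted K50 values from sequencing counts to a sequence-predicted unfolded-state K50 and a shared folded-state K50. The underlying digests exposed cysteine-free mini-proteins under 80 residues, in a PA-tagged cDNA display construct, to trypsin and chymotrypsin at 11 threefold-diluted concentrations and to a no-protease condition. A filter kept only designs with AlphaFold2 dimer inter-PAE above 15.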

[2] = folding stability dG unfold from chymotrypsin proteolysis; higher = more stable
Procedure, shortened: as §1

[3] = folding stability dG unfold (combined trypsin and chymotrypsin); higher = more stable
Procedure, shortened: as §1

SSMPLEEIVERVAEELGIPEEELERIESVDPGVVDPSPEGPTRVELRITLRDPHSDTTTEYRVEVEDPGGSA [r9_230_JUSTAS]
folding stability dG unfold [1]: -0.784 ± 0.3 kcal/mol
folding stability dG unfold [2]: -0.503 ± 0.46 kcal/mol
folding stability dG unfold [3]: -0.501 ± 0.29 kcal/mol

SSMSIEIKEVEEDPVGSEAKPRVVREKVTLEGTEVELTVTVTEAPSGETTVTTTLTFPGSGKTFSFTFDTSA [r9_241_JUSTAS]
folding stability dG unfold [1]: 1.9 ± 0.052 kcal/mol
folding stability dG unfold [2]: 3.05 ± 0.044 kcal/mol
folding stability dG unfold [3]: 2.62 ± 0.058 kcal/mol

SSMSMKTITIDATFTSEEEAKKYAEEIKKKIPPENIKNISISSTPELVTGDGTYKGEKIKVTITIEIVKKSA [r9_605_JUSTAS]
folding stability dG unfold [1]: 1.64 ± 0.17 kcal/mol
folding stability dG unfold [2]: 1.74 ± 0.2 kcal/mol
folding stability dG unfold [3]: 1.71 ± 0.26 kcal/mol

SSPALDEKYTAKVDAKVTSPEGKPLATFTIDVLTEEEAKKKIEEFVKELAEKLGRPDLPVTISNITIERVSA [r9_376_JUSTAS]
folding stability dG unfold [1]: 0.519 ± 0.077 kcal/mol
folding stability dG unfold [2]: 0.921 ± 0.16 kcal/mol
folding stability dG unfold [3]: 0.679 ± 0.25 kcal/mol

SSPANITTTTTSSPLNLETFDPKTGKKKRINYTLTTETVTFPGGEVVTTTVLKDASTGKVTTLSTTVTPTSA [r9_402_JUSTAS]
folding stability dG unfold [1]: 0.773 ± 0.081 kcal/mol
folding stability dG unfold [2]: 1.22 ± 0.14 kcal/mol
folding stability dG unfold [3]: 1.08 ± 0.12 kcal/mol

SSPEEMAEKLAKELNFDKIEIKTEKLDLPSGPSEATVATAKLYNPATGKEYVVKILKFPDGSYEIVIEKKSA [r9_724_JUSTAS]
folding stability dG unfold [1]: 1.44 ± 0.042 kcal/mol
folding stability dG unfold [2]: 2.627 ± 0.015 kcal/mol
folding stability dG unfold [3]: 2.28 ± 0.07 kcal/mol

SSPLINILTVEVTAETPSGGSFSKTFTFPASKYTEEEIREKIKEEYPDLTDIKITPKVTKIPPGPKILLASA [r9_841_JUSTAS]
folding stability dG unfold [1]: 1.29 ± 0.07 kcal/mol
folding stability dG unfold [2]: 1.98 ± 0.18 kcal/mol
folding stability dG unfold [3]: 1.76 ± 0.18 kcal/mol

SSSLDYVFKDIDPSSPNKLTLSEIKPVPESDKVVNKIVFPTKTILVTFDSAEDAEAHIGLLLKLFGSPPESA [r9_258_TrMRF]
folding stability dG unfold [1]: 0.66 ± 0.044 kcal/mol
folding stability dG unfold [2]: 0.924 ± 0.12 kcal/mol
folding stability dG unfold [3]: 0.852 ± 0.1 kcal/mol

SSSSEVKVERYPDSYLVTITIREGDKEVGTLSYPLNGSLTVEEVLEEVQKRYPDLPVSFSTSVPVPPPAPSA [r9_364_JUSTAS]
folding stability dG unfold [1]: 3.46 ± 0.11 kcal/mol
folding stability dG unfold [2]: 3.88 ± 0.073 kcal/mol
folding stability dG unfold [3]: 3.8 ± 0.13 kcal/mol

SSSSMKTITLEKKITSPEEAEALREELLKKGYEVEVKVYPHPDSYIAKITVTIEVPPPPLSPTNPSALLKSA [r9_863_JUSTAS]
folding stability dG unfold [1]: 1.19 ± 0.061 kcal/mol
folding stability dG unfold [2]: 0.913 ± 0.2 kcal/mol
folding stability dG unfold [3]: 0.967 ± 0.22 kcal/mol

SSSSSRTIEYPDSTLELTFTTTPLPDDTYRVPVQVTRYDPVTKTWSTRNLTVPFPPSDPEAAAEAVIARLLS [r1_171_JUSTAS]
folding stability dG unfold [1]: 0.11 ± 0.1 kcal/mol
folding stability dG unfold [2]: 0.39 ± 0.11 kcal/mol
folding stability dG unfold [3]: 0.355 ± 0.092 kcal/mol

SSSVSVTRTRDPRTGRLVVTVSMNYEDDPEEAVEAAKALLEAAGLDVAEVLSITVDPSTGTVTIPIAVAPSA [r9_876_JUSTAS]
folding stability dG unfold [1]: 2.79 ± 0.062 kcal/mol
folding stability dG unfold [2]: 3.15 ± 0.076 kcal/mol
folding stability dG unfold [3]: 3.05 ± 0.064 kcal/mol

SSVPADAAPVTVTETVTVTLPVDTATGGVPEERVAAAREAAAARGFTEFTVTTDPAAGTVTVTVTRTSRVSA [r9_201_JUSTAS]
folding stability dG unfold [1]: 0.77 ± 0.055 kcal/mol
folding stability dG unfold [2]: 1.27 ± 0.035 kcal/mol
folding stability dG unfold [3]: 1.11 ± 0.054 kcal/mol

SSYTVLEEKVESDPNKDSLTYLTLKTPDGRELTVTEPVKKVDDSWITNSTLTDPVGGRTTTSTTTVKLSGSA [r9_269_JUSTAS]
folding stability dG unfold [1]: -0.977 ± 0.29 kcal/mol
folding stability dG unfold [2]: -0.409 ± 0.17 kcal/mol
folding stability dG unfold [3]: -0.487 ± 0.13 kcal/mol

STIMIMFRSPEDLEKFLNEAKEMIRNGKNVPITIMAHGPNGRYWMFTIDIKMDPDGNPKIEIEWEPVPPDSA [r9_1023_TrROS]
folding stability dG unfold [1]: 3.23 ± 0.1 kcal/mol
folding stability dG unfold [2]: 4.24 ± 0.043 kcal/mol
folding stability dG unfold [3]: 3.89 ± 0.099 kcal/mol

STSTTITYPTLTISVEESVLPDGTPRYTVTLHLPEKGVSIPVEVDSAAEAEEAVREAIRKLLPDETVEEESA [r9_749_JUSTAS]
folding stability dG unfold [1]: 2.24 ± 0.12 kcal/mol
folding stability dG unfold [2]: 2.24 ± 0.16 kcal/mol
folding stability dG unfold [3]: 2.23 ± 0.2 kcal/mol

SVIIYMPWDNIPNMLRQLKALAKNGQKPVTIYMPVPEDWRRELREWLDDYGITVEPHPDNDWYKIEIEPKSA [r9_600_TrROS]
folding stability dG unfold [1]: 2.54 ± 0.069 kcal/mol
folding stability dG unfold [2]: 3.318 ± 0.0095 kcal/mol
folding stability dG unfold [3]: 3.09 ± 0.077 kcal/mol

SVIKLPIWYPNSPAEQAEEMVQSLARKFMDKYGLKIDVEVETRRDPDGKPRWVRIEATIQYRDEDGKPIFSA [r9_21_TrROS]
folding stability dG unfold [1]: 1.81 ± 0.084 kcal/mol
folding stability dG unfold [2]: 2 ± 0.073 kcal/mol
folding stability dG unfold [3]: 2.07 ± 0.26 kcal/mol

SVPVAPDKTYEIENIEEGNYLIKGLTLTPLPDGSVKIDKDIEPIEIPPKPPPLKYDPVKGGFIKPNDPLLSA [r9_603_JUSTAS]
folding stability dG unfold [1]: 0.319 ± 0.08 kcal/mol
folding stability dG unfold [2]: 0.592 ± 0.19 kcal/mol
folding stability dG unfold [3]: 0.434 ± 0.14 kcal/mol

SWKIKISIERTGDWITVKIWYDNPSELRNAIEMIAEKLGMKVEIDDVSWKRDPNGWYEATITVRIKPGMPSA [r9_102_TrROS]
folding stability dG unfold [1]: 3.27 ± 0.18 kcal/mol
folding stability dG unfold [2]: 3.31 ± 0.077 kcal/mol
folding stability dG unfold [3]: 3.42 ± 0.16 kcal/mol

SWQIKEVFPLPNGMRIKVYIHPDGYVQVSIRMYRPNPNDGKPQRQRFSITVPLPPGKPPSIDDILDYILNSA [r9_614_TrROS]
folding stability dG unfold [1]: 2.36 ± 0.051 kcal/mol
folding stability dG unfold [2]: 2.24 ± 0.21 kcal/mol
folding stability dG unfold [3]: 2.44 ± 0.22 kcal/mol

SWTFPILIRFPFDDPEDLDKAREMAEDLVRYLAEEFGWPVKIDKVKYERNPENGWVWIRAEITVTPPDDVSA [r9_105_TrROS]
folding stability dG unfold [1]: 3.62 ± 0.08 kcal/mol
folding stability dG unfold [2]: 5.31 ± 0.098 kcal/mol
folding stability dG unfold [3]: 4.9 ± 0.11 kcal/mol

SWWYIVTIKIWKPGNGEPKGPIMLFVRSPEEAEEIAEEPAPEHGYDVEVNVKRIPPDDMDDPEQMKEMMNSA [r9_864_TrROS]
folding stability dG unfold [1]: 1.82 ± 0.035 kcal/mol
folding stability dG unfold [2]: 2.56 ± 0.13 kcal/mol
folding stability dG unfold [3]: 2.07 ± 0.37 kcal/mol

SWWYMVKIEIENGGKPIKIPVPVNDLDDFIDNAREAIPPDLADQLPPNMEVEVEVMPIPRVDPENGKPRPSA [r9_111_TrROS]
folding stability dG unfold [1]: 0.866 ± 0.054 kcal/mol
folding stability dG unfold [2]: 1.42 ± 0.15 kcal/mol
folding stability dG unfold [3]: 1.1 ± 0.15 kcal/mol

SWYIIRIEIKIRNPKDGKSFDIEIMIHAPVEEAKEIAKEIASMFPGMRVEVKITEVMPMPPMTPEQLEKMSA [r9_421_TrROS]
folding stability dG unfold [1]: 2.23 ± 0.081 kcal/mol
folding stability dG unfold [2]: 3.721 ± 0.027 kcal/mol
folding stability dG unfold [3]: 3.25 ± 0.076 kcal/mol

SYLPESVPYDLVELTVVAKGKSPEYLEKKIKEAFKDVKIEPFYDPEKKLVTFKIVFPNKETAEKFKELVSSA [r9_764_TrMRF]
folding stability dG unfold [1]: 1.93 ± 0.054 kcal/mol
folding stability dG unfold [2]: 2.28 ± 0.041 kcal/mol
folding stability dG unfold [3]: 2.16 ± 0.07 kcal/mol

TPLTTSTTTVPPSEIATPVTFNAPLSPDTSVTITTYDSATGTTSPVFSTTSASVTLTDLPNVSTATVVVVSS [r1_224_JUSTAS]
folding stability dG unfold [1]: 0.702 ± 0.018 kcal/mol
folding stability dG unfold [2]: -0.255 ± 0.23 kcal/mol
folding stability dG unfold [3]: 0.459 ± 0.068 kcal/mol

TTKTYTTPVIKKMTVTFDKTEGNEATLTITATLPDGTPVTLPFPLTLETGKLDPAVVEAAIKAAVATAIAQS [r1_124_JUSTAS]
folding stability dG unfold [1]: 0.892 ± 0.07 kcal/mol
folding stability dG unfold [2]: 1.37 ± 0.12 kcal/mol
folding stability dG unfold [3]: 1.23 ± 0.2 kcal/mol

WRIRVEIEMYNPDGDPMEMEIQIPVDKLQELRQEGEPFTKEELVDEIVEIIRDMMPEHGMPIEIKIVEIVPS [r1_174_TrROS]
folding stability dG unfold [1]: 1.64 ± 0.051 kcal/mol
folding stability dG unfold [2]: 1.76 ± 0.074 kcal/mol
folding stability dG unfold [3]: 1.76 ± 0.2 kcal/mol
